Assay results taken from paper PMC8837689, “Allosteric control of Ubp6 and the proteasome via a bidirectional switch” (Nature Communications, 2022).

Experiments:
[1] = biological target: 26S proteasome purified from ubp6Δ hul5Δ yeast (nominally wild-type), Protein A-tagged (budding yeast) (UniProt P33299); test: Ub-AMC hydrolysis (activation of Ubp6 as a proxy for the association); Ubp6 1.25 nM to 60 nM titrated on 1 nM proteasome with 1 μM Ub-AMC; rates of Ubp6 alone and proteasome alone subtracted; hyperbolic fit; 50 mM Tris-HCl pH 7.5, 1 mM EDTA, 1 mM ATP, 5 mM MgCl2, 1 mM DTT, 1 mg/mL ovalbumin
[2] = biological target: 26S proteasome purified from ubp6Δ hul5Δ yeast (nominally wild-type), Protein A-tagged (budding yeast) (UniProt P33299)
[3] = biological target: 26S proteasome purified from rpt1-RK ubp6Δ hul5Δ yeast, Protein A-tagged (budding yeast) (UniProt P33299); test: Ub-AMC hydrolysis (activation of Ubp6 as a proxy for the association); Ubp6 1.25 nM to 60 nM titrated on 1 nM proteasome with 1 μM Ub-AMC; rates of Ubp6 alone and proteasome alone subtracted; hyperbolic fit; 50 mM Tris-HCl pH 7.5, 1 mM EDTA, 1 mM ATP, 5 mM MgCl2, 1 mM DTT, 1 mg/mL ovalbumin
[4] = biological target: 26S proteasome purified from rpt1-RK ubp6Δ hul5Δ yeast, Protein A-tagged (budding yeast) (UniProt P33299)
[5] = biological target: T1, Ubp6 (wild-type, His6-tagged) (budding yeast, UniProt P43593 1-499); test: cryo-EM structure; 26S proteasomes and Ubp6-UbVS mixed 1:4 (400 nM 26S or 26S Rpt1-RK, 1.6 μM Ubp6-UbVS), 20 min on ice; 20 mM HEPES-NaOH pH 7.4, 40 mM NaCl, 4 mM DTT, 4 mM MgCl2, 4 mM ATP, ~25% sucrose; maps at 6 to 7 Å, models by flexible fitting; details: both partners purified
T1 construct: Ubp6, deubiquitinating enzyme, budding yeast; N-terminal UBL domain and C-terminal catalytic domain (residues 104 to 499); In the cryo-EM rows Ubp6 stood as the UbVS adduct; only the catalytic domain (104-499) was modelled; also called His6-Ubp6; wild-type Ubp6; source: E. coli Rosetta (DE3), purified (Ni-NTA)
T1 sequence (looked up): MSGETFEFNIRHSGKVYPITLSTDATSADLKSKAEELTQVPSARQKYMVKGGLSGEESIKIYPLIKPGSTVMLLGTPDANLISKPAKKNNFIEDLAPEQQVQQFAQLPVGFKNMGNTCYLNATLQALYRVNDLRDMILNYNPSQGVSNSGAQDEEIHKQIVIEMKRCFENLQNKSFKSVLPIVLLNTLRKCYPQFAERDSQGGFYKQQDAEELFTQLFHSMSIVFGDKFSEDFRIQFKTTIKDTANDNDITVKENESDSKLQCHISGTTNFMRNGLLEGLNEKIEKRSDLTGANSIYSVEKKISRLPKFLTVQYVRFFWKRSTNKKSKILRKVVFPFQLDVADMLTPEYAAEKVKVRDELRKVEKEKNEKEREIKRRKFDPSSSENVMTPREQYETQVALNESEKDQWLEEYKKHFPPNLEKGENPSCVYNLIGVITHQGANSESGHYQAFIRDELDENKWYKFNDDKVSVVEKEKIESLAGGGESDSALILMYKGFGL

[6] = biological target: T2, Rpt6 (proteasome subunit) (budding yeast, UniProt Q01939 1-405); test: as above; details: both partners purified
T2 construct: Rpt6, ATPase of the regulatory particle, budding yeast; Stood in the assay as a subunit of m6; source: subunit of the 26S proteasome (3X FLAG) purified from yeast
T2 sequence: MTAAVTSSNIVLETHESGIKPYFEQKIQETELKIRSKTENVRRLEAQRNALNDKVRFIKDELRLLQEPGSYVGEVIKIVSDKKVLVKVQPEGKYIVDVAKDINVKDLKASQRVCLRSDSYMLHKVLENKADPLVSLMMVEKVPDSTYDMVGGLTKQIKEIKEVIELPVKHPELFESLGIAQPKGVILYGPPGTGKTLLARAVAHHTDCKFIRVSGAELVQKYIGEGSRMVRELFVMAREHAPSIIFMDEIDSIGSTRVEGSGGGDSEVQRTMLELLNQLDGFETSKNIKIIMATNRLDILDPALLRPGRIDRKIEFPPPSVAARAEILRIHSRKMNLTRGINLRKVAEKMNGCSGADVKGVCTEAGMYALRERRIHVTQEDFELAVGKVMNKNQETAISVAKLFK

Ubp6-I329A L330A (from UniProt P43593 97-499) (enzyme)
Kd [1]: 4 nM | proteasome-activated deubiquitinating activity (Ub-AMC hydrolysis) of Ubp6-AA relative to wild-type Ubp6 [2]: 2 % of WT

Ubp6 (wild-type, His6-tagged) (from UniProt P43593 1-499) (enzyme)
Kd [3]: 2 nM | Kd [1]: 3.3 nM | capacity of the Rpt1-RK proteasome to activate wild-type Ubp6 (Ub-AMC hydrolysis), loss relative to wild-type proteasome [4]: 97 % lost

B1: Rpt1 (proteasome subunit) (natural protein, budding yeast)
chain: MPPKEDWEKYKAPLEDDDKKPDDDKIVPLTEGDIQVLKSYGAAPYAAKLKQTENDLKDIEARIKEKAGVKESDTGLAPSHLWDIMGDRQRLGEEHPLQVARCTKIIKGNGESDETTTDNNNSGNSNSNSNQQSTDADEDDEDAKYVINLKQIAKFVVGLGERVSPTDIEEGMRVGVDRSKYNIELPLPPRIDPSVTMMTVEEKPDVTYSDVGGCKDQIEKLREVVELPLLSPERFATLGIDPPKGILLYGPPGTGKTLCARAVANRTDATFIRVIGSELVQKYVGEGARMVRELFEMARTKKACIIFFDEIDAVGGARFDDGAGGDNEVQRTMLELITQLDGFDPRGNIKVMFATNRPNTLDPALLRPGRIDRKVEFSLPDLEGRANIFRIHSKSMSVERGIRWELISRLCPNSTGAELRSVCTEAGMFAIRARRKVATEKDFLKAVDKVISGYKKFSSTSRYMQYN
notes: Rpt1, ATPase of the regulatory particle, budding yeast; Stood in the assays as a subunit of m6 or m10; source: subunit of the 26S proteasome (3X FLAG) or RP (Protein A) purified from yeast
binding result [5]: binds

B2: Rpt1-S164R T166K (natural protein, budding yeast)
chain: MPPKEDWEKYKAPLEDDDKKPDDDKIVPLTEGDIQVLKSYGAAPYAAKLKQTENDLKDIEARIKEKAGVKESDTGLAPSHLWDIMGDRQRLGEEHPLQVARCTKIIKGNGESDETTTDNNNSGNSNSNSNQQSTDADEDDEDAKYVINLKQIAKFVVGLGERVRPKDIEEGMRVGVDRSKYNIELPLPPRIDPSVTMMTVEEKPDVTYSDVGGCKDQIEKLREVVELPLLSPERFATLGIDPPKGILLYGPPGTGKTLCARAVANRTDATFIRVIGSELVQKYVGEGARMVRELFEMARTKKACIIFFDEIDAVGGARFDDGAGGDNEVQRTMLELITQLDGFDPRGNIKVMFATNRPNTLDPALLRPGRIDRKVEFSLPDLEGRANIFRIHSKSMSVERGIRWELISRLCPNSTGAELRSVCTEAGMFAIRARRKVATEKDFLKAVDKVISGYKKFSSTSRYMQYN
notes: Rpt1, ATPase of the regulatory particle, budding yeast, with S164R and T166K; Stood in the assay as a subunit of m7; also called Rpt1-RK; rpt1-RK; source: subunit of the Rpt1-RK 26S proteasome (3X FLAG) purified from yeast
binding result [5]: binds

B3: α2 subunit of the CP α ring (natural protein, budding yeast)
chain: MTDRYSFSLTTFSPSGKLGQIDYALTAVKQGVTSLGIKATNGVVIATEKKSSSPLAMSETLSKVSLLTPDIGAVYSGMGPDYRVLVDKSRKVAHTSYKRIYGEYPPTKLLVSEVAKIMQEATQSGGVRPFGVSLLIAGHDEFNGFSLYQVDPSGSYFPWKATAIGKGSVAAKTFLEKRWNDELELEDAIHIALLTLKESVEGEFNGDTIELAIIGDENPDLLGYTGIPTDKGPRFRKLTSQEINDRLEAL
notes: alpha2 subunit of the core particle alpha ring, budding yeast; Stood in the assay as a subunit of m6; source: subunit of the 26S proteasome (3X FLAG) purified from yeast
binding result [6]: binds

B4: α3 subunit of the CP α ring (natural protein, budding yeast)
chain: MGSRRYDSRTTIFSPEGRLYQVEYALESISHAGTAIGIMASDGIVLAAERKVTSTLLEQDTSTEKLYKLNDKIAVAVAGLTADAEILINTARIHAQNYLKTYNEDIPVEILVRRLSDIKQGYTQHGGLRPFGVSFIYAGYDDRYGYQLYTSNPSGNYTGWKAISVGANTSAAQTLLQMDYKDDMKVDDAIELALKTLSKTTDSSALTYDRLEFATIRKGANDGEVYQKIFKPQEIKDILVKTGITKKDEDEEADEDMK
notes: alpha3 subunit of the core particle alpha ring, budding yeast; Stood in the assay as a subunit of m6; source: subunit of the 26S proteasome (3X FLAG) purified from yeast
binding result [6]: binds
